{"source": "paper PMC4337669", "test_system": "H-NS (Escherichia coli)", "experiment": "EMSA", "details": "40 mM HEPES-KOH pH 8.0, 100 mM K-glutamate, 0.022% NP-40, 100 µg/ml BSA, 10% glycerol, 2 or 8 mM Mg aspartate, 20 °C 20 min; 3% native PAGE in 0.5x TBE + 2.5% …", "data": [{"substance": "λPR-bgl template (linear pMK110 PCR fragment)", "values": [{"measurement": "K half", "result": 2, "unit": "nM"}]}]}
